# In article PMC6224509 (Nature Communications, 2018):
# Key:
# [1] = biological target: T1, human 4-1BB residues 24–186, wild type, His–Avi (human, UniProt Q07011); assay: cell-based or functional assay
# [2] = biological target: T1, human 4-1BB residues 24–186, wild type, …; assay: SPR; binding kinetics and affinities, monovalent binding of utomilumab and urelumab to wild type and mutant h4-1BB (Supplementary Figure 8); who was immobilised is not given in the source; conditions: both partners purified
# [3] = biological target: T2, human 4-1BB residues 24–186 I132R, His–Avi (Homo sapiens, UniProt Q07011, I132R); assay: as above; conditions: both partners purified
# T2 construct: human 4-1BB (CD137, TNFRSF9), residues 24-186, I132R; source: HEK cells, transfected, secreted, purified (NiExcel, Superdex 200); not shown: His8, C-terminal, kept
# [4] = biological target: T3, human 4-1BB residues 24–186 M101R, His–Avi (Homo sapiens, UniProt Q07011, M101R); assay: as above; conditions: both partners purified
# T3 construct: human 4-1BB (CD137, TNFRSF9), residues 24-186, M101R; source: HEK cells, transfected, secreted, purified (NiExcel, Superdex 200); not shown: His8, C-terminal, kept
# T3 sequence (Q07011 24-186 M101R): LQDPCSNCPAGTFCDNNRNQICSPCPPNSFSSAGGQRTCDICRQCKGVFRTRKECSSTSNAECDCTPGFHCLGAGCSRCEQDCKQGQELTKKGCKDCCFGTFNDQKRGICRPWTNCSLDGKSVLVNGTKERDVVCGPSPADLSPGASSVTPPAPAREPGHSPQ
# T1 sequence (Q07011 24-186): as the sequence (Q07011 24-186 M101R) above, with R78M counted along it
# T2 sequence (Q07011 24-186 I132R): as the sequence (Q07011 24-186 M101R) above, with R78M, I109R counted along it
"NF-ĸB luciferase reporter in h4-1BB-expressing HEK293 cells, fold induction over unstimulated cells, cross-linked by Pfeiffer cells (FcγRIIB), max 250 nM [1] [fold]","NF-ĸB luciferase reporter in h4-1BB-expressing HEK293 cells, fold induction over unstimulated cells, no cross-linking, max 250 nM [1] [fold]",Kd [2] [nM],Kd [3] [nM],Kd [4] [nM],Binder
2.24,1.99,,,,"urelumab (fully human IgG4 mAb) (antibody, V domains shown) VH: QVQLQQWGAGLLKPSETLSLTCAVYGGSFSGYYWSWIRQSPEKGLEWIGEINHGGYVTYNPSLESRVTISVDTSKNQFSLKLSSVTAADTAVYYCARDYGPGNYDWYFDLWGRGTLVTVSS VL: EIVLTQSPATLSLSPGERATLSCRASQSVSSYLAWYQQKPGQAPRLLIYDASNRATGIPARFSGSGSGTDFTLTISSLEPEDFAVYYCQQRSNWPPALTFGGGTKVEIK"
,,22,18,16,"urelumab Fab (Fab, V domains shown, urelumab heavy chain Fab region; urelumab kappa light chain (captured on an anti-human kappa surface); also called BMS-663513 (Fab); URE-Fab) VH: QVQLQQWGAGLLKPSETLSLTCAVYGGSFSGYYWSWIRQSPEKGLEWIGEINHGGYVTYNPSLESRVTISVDTSKNQFSLKLSSVTAADTAVYYCARDYGPGNYDWYFDLWGRGTLVTVSS VL: EIVLTQSPATLSLSPGERATLSCRASQSVSSYLAWYQQKPGQAPRLLIYDASNRATGIPARFSGSGSGTDFTLTISSLEPEDFAVYYCQQRSNWPPALTFGGGTKVEIK"
